Results taken from US20060019296A1, “Methods of indentifying modulators of the FGF receptor” (Mount Sinai School of Medicine, published 2006).
Square brackets hold non-standard residues; d marks the D form. Ends that are not written are not given here. pY = N[C@@H](Cc1ccc(OP(=O)(O)O)cc1)C(=O)O

T1: hFGFR1 peptide, 22-residue peptide derived from the juxtamembrane region of hFGFR1 (residues 409-430 of SEQ … (named hFGFR1 (human); SEQ ID NO:2 is …)
T1 peptide: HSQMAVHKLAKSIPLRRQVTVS

B1: SNT-1 PTB domain (amino acid residues 11-140 of SEQ ID NO:1) (other)
chain: DTVPDNHRNKFKVINVDDDGNELGSGIMELTDTELILYTRKRDSVKWHYLCLRRYGYDSNLFSFESGRRCQTGQGIFAFKCARAEELFNMLQEIMQNNSINVVEEPVVERNNHQTELEVPRTPRTPTTPGLVPR

Tests used:
[1] = target: T1, hFGFR1 peptide, 22-residue peptide …; test: isothermal titration calorimetry (ITC)
[2] = target: B1; test: method not stated

Kd [1] [µM] | Kd [2] [µM] | fold higher affinity than for the FGFR derived peptide of SEQ ID NO:3 [2] [fold] | Binder
~10 |  |  | B1
 | ~1 | ~10 | LVIAGNPA[pY]RS [tyrosine-phosphorylated peptide LVIAGNPApYRS (SEQ ID NO:4)]
